Reference: patent US20190092852A1 (Genentech, published 2019)
Where “and” joins values, the source holds several entries; their conditions need not be identical. Identical values can stand only once.

Experiments:
[1] = molecular target: T1, human IL-33 (Genentech, huIL33.his) (human, UniProt O95760 112-270); assay: SPR Biacore
T1 sequence (looked up): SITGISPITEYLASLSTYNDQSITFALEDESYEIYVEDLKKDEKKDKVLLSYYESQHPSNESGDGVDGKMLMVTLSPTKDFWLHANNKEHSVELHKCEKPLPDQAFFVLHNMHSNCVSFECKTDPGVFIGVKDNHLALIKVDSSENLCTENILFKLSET

[2] = molecular target: T2, cyno IL-33 (cell-based blocking assay of Example 2) (cynomolgus monkey, UniProt A0A2K5W3I1 95-269); assay: cell-based or functional assay
T2 sequence: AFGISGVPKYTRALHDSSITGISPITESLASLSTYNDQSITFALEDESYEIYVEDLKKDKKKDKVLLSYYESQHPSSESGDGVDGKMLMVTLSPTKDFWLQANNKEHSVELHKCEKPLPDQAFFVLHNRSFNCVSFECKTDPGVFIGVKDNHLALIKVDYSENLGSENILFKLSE

[3] = molecular target: T3, human IL-33 (cell-based blocking assay of Example 2) (human, UniProt O95760 112-270); assay: cell-based or functional assay
T3 sequence (looked up): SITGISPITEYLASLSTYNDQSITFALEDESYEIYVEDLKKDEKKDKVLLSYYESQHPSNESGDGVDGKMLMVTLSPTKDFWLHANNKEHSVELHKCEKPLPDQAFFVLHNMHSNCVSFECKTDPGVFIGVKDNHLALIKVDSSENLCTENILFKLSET

biotinylated cyno IL-33 = molecular target: T4, biotinylated cyno IL-33 (cynomolgus monkey, UniProt A0A2K5W3I1 112-269, biotin-labeled with EZ-LINK NHS-PEG4-Biotin); assay: competitive ELISA, biotin-cyIL-33 to coated hST2-Fc
T4 construct: also called biotin-cyIL-33
T4 sequence: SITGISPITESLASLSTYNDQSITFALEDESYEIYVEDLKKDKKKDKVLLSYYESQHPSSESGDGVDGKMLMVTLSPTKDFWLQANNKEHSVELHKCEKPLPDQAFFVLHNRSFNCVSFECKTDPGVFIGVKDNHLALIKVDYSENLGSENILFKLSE
Method: The ability of the anti-IL-33 antibody 10C12.38.H6.87Y.58I IgG4 and each anti-IL-33 antibody listed in Table 5 (RG1-RG20) to block either human IL-33 or cyno IL-33 binding to human ST2 receptor was tested in a competitive binding ELISA. Briefly, 1 μg/ml of recombinant human ST2-Fc chimera protein prepared in coating buffer (50 mM sodium carbonate, pH 9.6) was coated on a 384-well MAXISORP® plate (Nalgene Nunc International; Rochester, N.Y.) and incubated overnight at 4° C. On the next day, non-specific binding was blocked with PBS containing 0.5% (w/v) solution of bovine serum albumin (BSA). Fixed concentrations of biotinylated human or cyno IL-33 prepared in assay buffer (25 mM PBS, pH 7.2, 0.1% BSA, 0.05% TWEEN®-20) were mixed with an equal volume of serially-diluted anti-IL-33 antibodies or assay buffer alone and incubated for 1 h at room temperature. The final assay concentrations of biotinylated human IL-33 or cyno IL-33 were 20 pM and 45 pM, respectively, and the final assay concentration of each antibody ranged from 0-300 nM. The pre-mixed solutions were added to the ST2-Fc coated plate and incubated for 1 h at room temperature. The binding of biotinylated IL-33 to coated ST2-Fc was detected by the sequential addition of Streptavidin Poly-HRP80 (Fitzgerald; Buckinghamshire, UK) and 3,3′,5,5′-tetramethyl benzidine (TMB) Microwell Peroxidase Substrate System (KPL; Gaithersburg, Md.). The absorbance (450 nm) was recorded using a […] ASCENT® plate reader (Thermo Scientific; Rockford, Ill.). The binding activity (%) of biotin-IL-33 to ST2 in the presence of anti-IL-33 was plotted as a function of antibody concentration. The data generated were fitted to a four-parameter equation to determine IC₅₀ values for each antibody (FIGS. 25A and 25B) using Prism software (Graphpad Software; La Jolla, Calif.). The maximum blocking (%) of each antibody was calculated as the ratio of the reduction in signal measured in the presence of antibody relative to the difference between the signal with IL-33 alone and background measurements.

[4] = molecular target: T5, cynomolgus monkey N-terminal 6-His-tagged and C-terminal Avi-tagged IL-33 (S112-T270) (cynomolgus monkey); assay: cell-based or functional assay
T5 chain: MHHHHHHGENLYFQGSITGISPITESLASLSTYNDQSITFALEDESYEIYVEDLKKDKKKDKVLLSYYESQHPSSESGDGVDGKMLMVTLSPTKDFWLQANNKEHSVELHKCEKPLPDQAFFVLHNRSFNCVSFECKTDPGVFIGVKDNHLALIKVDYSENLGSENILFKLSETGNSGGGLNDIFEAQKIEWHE

cyno IL-33 N-His [5] = molecular target: T6, cyno IL-33 N-His (cynomolgus monkey); assay: SPR Biacore T200, 37 C
T6 chain: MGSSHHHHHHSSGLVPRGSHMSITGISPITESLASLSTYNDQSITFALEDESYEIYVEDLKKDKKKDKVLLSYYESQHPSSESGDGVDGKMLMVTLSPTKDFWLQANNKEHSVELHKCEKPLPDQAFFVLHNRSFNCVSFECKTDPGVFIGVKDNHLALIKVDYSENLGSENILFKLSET
Method: (§1) The binding kinetics of the anti-IL-33 antibody 10C12.38.H6.87Y.58I IgG4 and each anti-IL-33 antibody listed in Table 5 (RG1-RG20) to IL-33 were measured using surface plasmon resonance (SPR) on a BIACORE® T200 instrument (GE Healthcare). Anti-human Fc or anti-murine Fc (GE Healthcare, #BR-1008-39 or BR-1008-38, respectively) was immobilized on a CM5 sensor chip via amine-based coupling according to the manufacturer's protocol. Surfaces were used to capture monoclonal human IgG4 and monoclonal murine IgGs for kinetic studies. Antibody binding was measured to human IL-33 (R&D systems, #3625-IL-010/CF) and cyno IL-33 N-His (SEQ ID NO: 317) (Genentech, Inc.). A three-fold concentration series of cytokine with a range of 3.7 to 100 nM was used for the experiments. Sensograms for binding of IL-33 were recorded using an injection time of 4 min with a flow rate of 30 μl/minute with a running buffer of 0.01 M N-(2-Acetamido)iminodiacetic acid (ADA) pH 7.4, 0.15 M NaCl, 3 mM EDTA, and 0.05% TWEEN®-20. After injection, disassociation of the ligand from the antibody was monitored for 10 min in running buffer. The surface was regenerated in between cycles with an injection of 3 M magnesium chloride or Glycine-HCl pH 1.7. All binding experiments were performed at a temperature of 25′C and 37° C. After subtraction of a blank which contained running buffer only, sensograms observed for IL-33 binding to anti-IL-33 antibodies were analyzed using a 1:1 Langmuir binding model with software supplied by the manufacturer to calculate the kinetics and binding constants, including the dissociation constant (KD). Dissociative half-lives (t_{1/2}) were calculated from the kinetic rate constants. KD (M)=koff/kₒₙ and t_{1/2} (min)=ln(2)/(60*koff). […] In Tables 6-9, *IC indicates the result is inconclusive due to weak capture of antibody was observed, leading to poor binding data.

cyno IL-33 N-His [6] = molecular target: T6, cyno IL-33 N-His; assay: SPR Biacore T200, 25 C
Method: as §1

B1: 9F6.34.E10 (antibody, V domains shown)
VH: EVQLVQSGAEVKKPGASVKVSCKASGYTFTSYWINWVRQAPGQGLEWIGRIAPGSGFISYNELFKDRVTITRDTSTSTAYLELSSLRSEDTAVYYCAREFYYGSFYGGFAYWGQGTLVTVSS
VL: DIQMTQSPSSLSASVGDRVTITCHASQNIHVWLSWYQQKPGKAPKLLIYKASTLHTGVPSRFSGSGSGTDFTLTISSLQPEDFATYYCQQGQSSPLTFGQGTKVEIK
notes: Humanized variant of 9F6
[1]
  Kd: 0.795 nM
[2]
  Cell assay (cy) IC90: > 1.5 µg/mL and > 9.9 nM
[3]
  Cell assay (hu) IC90: 0.0128 µg/mL and 0.84 nM

B2: H4H9660P (antibody, V domains shown)
VH: EVQLVESGGGLVQPGGSLRLSCAASGITLSSYGMSWVRQAPGKGLEWVASIFGSGGGPYYADSVKGRFTMSRDNSKNTLYLQMNSLRAEDTAVYYCAKDRYSGSYYGGFDYWGRGTLVTVSS
VL: DIQMTQSPSSVSASVGDRVTITCRASQGITSWLAWYQQKPGKAPTLLIYAASSLQTGVPSRFSGSGSGTDFTLTISSLQPEHFATYYCQQANSFPPTFGGGTKVEIK
Biotinylated cyno IL-33
  IC50: 120 nM
  Maximum Blocking: 18%
[4]
  IC50; SEAP reporter (OD 620), HEK-BLUE IL-33/IL-1beta cells, 5 pM cyno IL-33 (5pM cIL-33-Nhis): 4.8e-08 M
Cyno IL-33 N-His [5]
  Kd: 7.93 nM
  koff: 0.00305 s⁻¹
  kon: 385000 M⁻¹ s⁻¹
  t1/2: 4 min
Cyno IL-33 N-His [6]
  Kd: 2.69 nM
  koff: 0.00064 s⁻¹
  kon: 238000 M⁻¹ s⁻¹
  t1/2: 18 min

B3: H4H9671P (antibody, V domains shown)
VH: EVQLVESGGGLVQPGGSLRLSCAASGFTLRSYFMTWVRQVPGKGLEGVSAISGISGGTYYTDSVKGRFTISRDNSKNTLFLQMNSLRAEDTAVYFCARTVYSSSYYGGFQHWGQGTLVTVSS
VL: DIQMTQSPSSVSVSVGDRVTITCRASQGISSWLAWYQQKPGKAPKLLIYVASSLQSGVPSRFSGSGSGTDFTLTISSLQPEDFATYYCQQTNSFPLTFGGGTKVEIK
Biotinylated cyno IL-33
  IC50: 70 nM
  Maximum Blocking: 40%
[4]
  IC50; SEAP reporter (OD 620), HEK-BLUE IL-33/IL-1beta cells, 5 pM cyno IL-33 (5pM cIL-33-Nhis): 5e-08 M
Cyno IL-33 N-His [5]
  Kd: 3.66 nM
  koff: 0.00326 s⁻¹
  kon: 890000 M⁻¹ s⁻¹
  t1/2: 4 min
Cyno IL-33 N-His [6]
  Kd: 1.72 nM
  koff: 0.000915 s⁻¹
  kon: 533000 M⁻¹ s⁻¹
  t1/2: 13 min

B4: H4H9665P (antibody, V domains shown)
VH: EVQLVESGGGLVQPGGSLRLSCAASGFTFSNYAMTWVRQAPGKGLEWVSTISGSGDNTYYADSVQGRFTISRGHSKNTLYLQMNSLRAEDTAVYYCAKPTYSRSWYGAFDFWGQGTMVTVSS
VL: DIQMTQSPSSVSASVGDRVTITCRASQGISSWLAWYQQKPGKAPQLLIYAASRLQSGVPSRFWGSGSGTDFTLTISSLQPEDFATYYCQQANNFPFTFGPGTKVDIK
Biotinylated cyno IL-33
  IC50: 19 nM
  Maximum Blocking: 53%
[4]
  IC50; SEAP reporter (OD 620), HEK-BLUE IL-33/IL-1beta cells, 5 pM cyno IL-33 (5pM cIL-33-Nhis): 1.1e-08 M
Cyno IL-33 N-His [5]
  Kd: 1.96 nM
  koff: 0.00142 s⁻¹
  kon: 727000 M⁻¹ s⁻¹
  t1/2: 8 min
Cyno IL-33 N-His [6]
  Kd: 0.976 nM
  koff: 0.000426 s⁻¹
  kon: 437000 M⁻¹ s⁻¹
  t1/2: 27 min

B5: H4H9663P (antibody, V domains shown)
VH: QVQLVQSGAEVKKPGASVKVSCKASGYTFTGHYMYWMRQAPGQGLEWMGWINPNSGGTNYAQKFQDRVTMTRDTSISTAYMELSRLRSDDTAVYYCARGRYGSSWYGGFEYWGQGTLVTVSS
VL: DIQMTQSPSSVSASVGDRVTITCRASQGITSWLAWYQQKPGKAPNLLIYAAASLQSGVPSRFSGSGSGTDFTLTISSLQPEDFTTYYCQQAYSLPLTFGGGTKVEIK
Biotinylated cyno IL-33
  IC50: 26 nM
  Maximum Blocking: 61%
[4]
  IC50; SEAP reporter (OD 620), HEK-BLUE IL-33/IL-1beta cells, 5 pM cyno IL-33 (5pM cIL-33-Nhis): 2.3e-08 M
Cyno IL-33 N-His [5]
  Kd: 1.03 nM
  koff: 0.00202 s⁻¹
  kon: 1.96e+06 M⁻¹ s⁻¹
  t1/2: 6 min
Cyno IL-33 N-His [6]
  Kd: 1.07 nM
  koff: 0.000545 s⁻¹
  kon: 511000 M⁻¹ s⁻¹
  t1/2: 21 min

B6: H4H9662P (antibody, V domains shown)
VH: EVQLVESGGGLVQPGGSLRLSCAASGFTFSSYALTWVRQAPGKGLEWVSFISGSGGRPFYADSVKGRFTISRDNSKNMLYLQMNSLRAEDTAIYYCAKSLYTTSWYGGFDSWGQGTLVTVSS
VL: DIQMTQSPSSVSASVGDRVTITCRASQGVVSWLAWYQQKPGKAPKLLIYAASSLQSGVPSRFSGSGSGTDFTLTISSLQPEDFATYYCQQSNSFPFTLGPGTKVDIK
Biotinylated cyno IL-33
  IC50: 66 nM
  Maximum Blocking: 47%
[4]
  IC50; SEAP reporter (OD 620), HEK-BLUE IL-33/IL-1beta cells, 5 pM cyno IL-33 (5pM cIL-33-Nhis): 3.4e-08 M
Cyno IL-33 N-His [5]
  Kd: 2.31 nM
  koff: 0.00112 s⁻¹
  kon: 484000 M⁻¹ s⁻¹
  t1/2: 10 min
Cyno IL-33 N-His [6]
  Kd: 1.28 nM
  koff: 0.000313 s⁻¹
  kon: 245000 M⁻¹ s⁻¹
  t1/2: 37 min
